For data set [1], the target named is apocytochrome c (HP1227) (Helicobacter pylori) (UniProt O25825). In words: SEC; lysates of E. coli overexpressing HP0377 CSYA and HP1227 mixed, overnight at 37°C, Ni IMAC, then ENrich SEC70 in 20 mM Tris pH 8, 150 mM NaCl; fractions on SDS-PAGE with or without DTT; covalent (disulfide) complex. A general note: Size exclusion chromatography separates by hydrodynamic size, large species first.

Data set [2] deals with the molecule itself. In words: cross-linking; glutaraldehyde (0.001-0.1%) on purified truncated HP0377 at 2.5 mg/ml, SDS-PAGE.

The molecule “HP0377 with the CSYC motif changed to CSYA (C92A), amino acids 25-221, His6 fusion (from UniProt O25140 25-221) (enzyme)” yielded a stoichiometry N (HP0377 per apocytochrome c) in data set [1] of 2.

B1: HP0377 (Helicobacter pylori thiol oxidoreductase), amino acids 25-187 (domain or fragment, Helicobacter pylori strain 26695, UniProt O25140 25-187, looked up)
chain: CKSNNKDKLDENLLSSGSQSSKELNDERDNIDKKSYAGLEDVFSDNKSISPNDKYMLLVFGRNGCSYCERFKKDLKNVKELRDYIKEHFSAYYVNISYSKEHDFKVGDKNNEKEIKMSTEELAQIYAVQSTPTIVLSDKTGKTIYELPGYMPSTQFLAVLEFI
notes: HP0377 (CcmG family thiol oxidoreductase), Helicobacter pylori 26695, amino acids 25-187 of the native HP0377; also called 25-187 variant of HP0377; C-terminal-truncated HP0377; source: E. coli, purified
On to B1, for which the “stoichiometry N” value in data set [2] was 2.

B2: HP0377 (Helicobacter pylori thiol oxidoreductase), amino acids 33-221 (domain or fragment, Helicobacter pylori strain 26695, UniProt O25140 33-221, looked up)
chain: LDENLLSSGSQSSKELNDERDNIDKKSYAGLEDVFSDNKSISPNDKYMLLVFGRNGCSYCERFKKDLKNVKELRDYIKEHFSAYYVNISYSKEHDFKVGDKNNEKEIKMSTEELAQIYAVQSTPTIVLSDKTGKTIYELPGYMPSTQFLAVLEFIGDGKYQDTKDDEDLTKKLKAYIKYKTNLSKSKSN
notes: HP0377 (CcmG family thiol oxidoreductase), Helicobacter pylori 26695, amino acids 33-221 of the native HP0377; the variant previously analysed by Yoon et al. [16]; also called 33-221 variant of HP0377; N-terminal-shortened HP0377; source: E. coli, purified
For B2, the “stoichiometry N” value in data set [2] was 2.

The stoichiometry N is the number of molecules, sites or subunits per partner or assembly.

The values above are taken from article PMC5909903, “Impact of selected amino acids of HP0377 (Helicobacter pylori thiol oxidoreductase) on its functioning as a CcmG (cytochrome c maturation) protein and Dsb (disulfide bond) isomerase” (PLoS ONE, 2018).
